Measured values reported in EP4722253A1 (dated 2026).

Experiments:
[1] = molecular target: T1, C1q, complement component 1q (UniProt P02745 23-245; P02746 28-253; P02747 29-245); assay: BLI (Octet HTX), antibody on FAB2G biosensor, C1q in solution
T1 construct: also called Clq

[2] = molecular target: T2, FcRn (UniProt P55899 24-297); assay: BLI (Octet HTX), antibody on FAB2G biosensor, FcRn in solution, pH 6.0
T2 construct: also called neonatal Fc receptor

[3] = molecular target: T3, FcγRIIIa (UniProt P08637 17-208); assay: BLI (Octet HTX), antibody on FAB2G biosensor, FcγRIIIa in solution
T3 construct: also called FcyRIIIa
T3 sequence (P08637 17-208 limits assumed): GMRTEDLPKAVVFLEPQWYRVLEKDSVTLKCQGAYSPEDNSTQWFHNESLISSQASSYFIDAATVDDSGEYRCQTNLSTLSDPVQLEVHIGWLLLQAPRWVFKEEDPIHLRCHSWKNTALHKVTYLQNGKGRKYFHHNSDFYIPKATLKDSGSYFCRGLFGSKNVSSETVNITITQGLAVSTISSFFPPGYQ

[4] = molecular target: T4, FcγRIIa (UniProt P12318 34-217); assay: BLI (Octet HTX), antibody on FAB2G biosensor, FcγRIIa in solution
T4 sequence (looked up): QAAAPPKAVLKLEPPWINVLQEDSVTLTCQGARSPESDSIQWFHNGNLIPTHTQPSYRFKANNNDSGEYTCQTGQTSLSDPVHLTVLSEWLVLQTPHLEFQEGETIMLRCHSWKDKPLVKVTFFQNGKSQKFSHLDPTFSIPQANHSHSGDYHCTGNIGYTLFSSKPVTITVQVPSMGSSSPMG

T1 sequence (P02745 23-245 limits assumed, chain 1 of 3): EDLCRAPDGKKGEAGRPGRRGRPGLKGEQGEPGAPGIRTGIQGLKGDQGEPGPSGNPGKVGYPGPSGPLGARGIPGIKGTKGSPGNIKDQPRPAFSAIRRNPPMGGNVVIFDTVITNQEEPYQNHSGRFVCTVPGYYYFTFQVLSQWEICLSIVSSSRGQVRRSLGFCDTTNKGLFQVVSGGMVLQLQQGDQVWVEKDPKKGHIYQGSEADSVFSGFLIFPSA
T1 sequence (P02746 28-253 limits assumed, chain 2 of 3): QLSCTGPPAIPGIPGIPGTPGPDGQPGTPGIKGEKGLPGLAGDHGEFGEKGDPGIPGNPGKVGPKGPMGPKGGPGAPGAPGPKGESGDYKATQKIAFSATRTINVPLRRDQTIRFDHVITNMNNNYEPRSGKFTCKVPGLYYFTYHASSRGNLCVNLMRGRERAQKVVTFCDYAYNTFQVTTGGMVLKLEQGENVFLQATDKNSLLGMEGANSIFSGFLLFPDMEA
T1 sequence (P02747 29-245 limits assumed, chain 3 of 3): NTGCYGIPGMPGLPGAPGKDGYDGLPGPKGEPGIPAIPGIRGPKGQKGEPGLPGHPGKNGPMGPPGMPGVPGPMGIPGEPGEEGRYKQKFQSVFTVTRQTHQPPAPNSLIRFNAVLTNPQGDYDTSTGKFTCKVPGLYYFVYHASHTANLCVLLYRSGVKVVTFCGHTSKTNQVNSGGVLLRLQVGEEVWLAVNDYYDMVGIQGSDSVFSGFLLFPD
T2 sequence (P55899 24-297 limits assumed, form in doubt): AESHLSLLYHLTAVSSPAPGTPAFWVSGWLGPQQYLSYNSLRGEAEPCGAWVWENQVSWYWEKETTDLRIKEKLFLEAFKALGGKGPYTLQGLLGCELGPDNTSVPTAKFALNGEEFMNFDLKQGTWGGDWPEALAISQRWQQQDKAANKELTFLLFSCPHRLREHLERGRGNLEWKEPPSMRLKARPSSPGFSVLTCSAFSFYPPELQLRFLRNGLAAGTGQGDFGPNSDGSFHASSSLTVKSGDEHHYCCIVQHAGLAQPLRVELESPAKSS

Binder	Kd [1] [nM]	Kd [2] [nM]	Kd [3] [nM]	Kd [4] [nM]
Q-SBL-111 (bispecific antibody, human IgG1, kappa, copies: 1 + 1 + 1 + 1) heavy 1: not shown heavy 2: EVQLVESGGGLVQPGGSLRLSCAASGYTFTNYGMNWVRQAPGKGLEWVGWINTYTGEPTYAADFKRRFTFSLDTSKSTAYLQMNSLRAEDTAVYYCAKYPHYYGSSHWYFDVWGQGTLVTVSSASTKGPSVFPLAPSSKSTSGGTAALGCLVKDYFPEPVTVSWNSGALTSGVHTFPAVLQSSGLYSLSSVVTVPSSSLGTQTYICNVNHKPSNTKVDKKVEPKSCDKTHTCPPCPAPELLGGPSVFLFPPKPKDTLMISRTPEVTCVVVDVSHEDPEVKFNWYVDGVEVHNAKTKPREEQYNSTYRVVSVLTVLHQDWLNGKEYKCKVSNKALPAPIEKTISKAKGQPREPQVCTLPPSRREMTKNQVSLWCLVKGFYPSDIAVEWESNGQPENNYKTTPPVLDSDGSFFLYSKLTVDKSRWQQGNVFSCSVMHEALHNHYTQKSLSLSPGK light 1: not shown light 2: not shown	30	690	490	2040
Q-SBL-131 (bispecific antibody, human IgG1, kappa, copies: 1 + 1 + 1 + 1) heavy 1: not shown heavy 2: EVQLVESGGGLVQPGGSLRLSCAASGYTFTNYGMNWVRQAPGKGLEWVGWINTYTGEPTYAADFKRRFTFSLDTSKSTAYLQMNSLRAEDTAVYYCAKYPHYYGSSHWYFDVWGQGTLVTVSSASTKGPSVFPLAPSSKSTSGGTAALGCLVKDYFPEPVTVSWNSGALTSGVHTFPAVLQSSGLYSLSSVVTVPSSSLGTQTYICNVNHKPSNTKVDKKVEPKSCDKTHTCPPCPAPELLGGPSVFLFPPKPKDTLMISRTPEVTCVVVDVSHEDPEVKFNWYVDGVEVHNAKTKPREEQYNSTYRVVSVLTVLHQDWLNGKEYKCKVSNKALPAPIEKTISKAKGQPREPQVCTLPPSREEMTKNQVSLWCLVKGFYPSDIAVEWESNGQPENNYKTTPPVLFSDGSFFLYSKLTVDKSRWQQGNVFSCSVMHEALHNHYTQKSLSLSPGK light 1: not shown light 2: not shown	16	670	330	1620
Q-SBL-115 (bispecific antibody, human IgG1, kappa, copies: 1 + 1 + 1 + 1) heavy 1: not shown heavy 2: EVQLVESGGGLVQPGGSLRLSCAASGYTFTNYGMNWVRQAPGKGLEWVGWINTYTGEPTYAADFKRRFTFSLDTSKSTAYLQMNSLRAEDTAVYYCAKYPHYYGSSHWYFDVWGQGTLVTVSSASTKGPSVFPLAPSSKSTSGGTAALGCLVKDYFPEPVTVSWNSGALTSGVHTFPAVLQSSGLYSLSSVVTVPSSSLGTQTYICNVNHKPSNTKVDKKVEPKSCDKTHTCPPCPAPELLGGPSVFLFPPKPKDTLMISRTPEVTCVVVDVSHEDPEVKFNWYVDGVEVHNAKTKPREEQYNSTYRVVSVLTVLHQDWLNGKEYKCKVSNKALPAPIEKTISKAKGQPREPQVCTLPPSRERMTKNQVSLWCLVKGFYPSDIAVEWESNGQPENNYKTTPPVLDSDGSFFLYSKLTVDKSRWQQGNVFSCSVMHEALHNHYTQKSLSLSPGK light 1: not shown light 2: not shown	18	690	290	1970
Q-SBL-127 (bispecific antibody, human IgG1, kappa, copies: 1 + 1 + 1 + 1) heavy 1: not shown heavy 2: EVQLVESGGGLVQPGGSLRLSCAASGYTFTNYGMNWVRQAPGKGLEWVGWINTYTGEPTYAADFKRRFTFSLDTSKSTAYLQMNSLRAEDTAVYYCAKYPHYYGSSHWYFDVWGQGTLVTVSSASTKGPSVFPLAPSSKSTSGGTAALGCLVKDYFPEPVTVSWNSGALTSGVHTFPAVLQSSGLYSLSSVVTVPSSSLGTQTYICNVNHKPSNTKVDKKVEPKSCDKTHTCPPCPAPELLGGPSVFLFPPKPKDTLMISRTPEVTCVVVDVSHEDPEVKFNWYVDGVEVHNAKTKPREEQYNSTYRVVSVLTVLHQDWLNGKEYKCKVSNKALPAPIEKTISKAKGQPREPQVCTLPPSREEMTKNQVSLWCLVKGFYPSDIAVEWESNGQPENNYKTTPPVLFSDGSFFLYSKLTVDKSRWQQGNVFSCSVMHEALHNHYTQKSLSLSPGK light 1: not shown light 2: not shown	18	750	230	1630
Q-SBL-137 (bispecific antibody, human IgG1, kappa, copies: 1 + 1 + 1 + 1) heavy 1: not shown heavy 2: EVQLVESGGGLVQPGGSLRLSCAASGYTFTNYGMNWVRQAPGKGLEWVGWINTYTGEPTYAADFKRRFTFSLDTSKSTAYLQMNSLRAEDTAVYYCAKYPHYYGSSHWYFDVWGQGTLVTVSSASTKGPSVFPLAPSSKSTSGGTAALGCLVKDYFPEPVTVSWNSGALTSGVHTFPAVLQSSGLYSLSSVVTVPSSSLGTQTYICNVNHKPSNTKVDKKVEPKSCDKTHTCPPCPAPELLGGPSVFLFPPKPKDTLMISRTPEVTCVVVDVSHEDPEVKFNWYVDGVEVHNAKTKPREEQYNSTYRVVSVLTVLHQDWLNGKEYKCKVSNKALPAPIEKTISKAKGQPREPQVCTLPPSREEMTKNQVSLWCLVKGFYPSDIAVEWESNGQPENNYKTTPPVLDSDGSFFLYSSLTVDKSRWQQGNVFSCSVMHEALHNHYTQKSLSLSPGK light 1: not shown light 2: not shown	24	580	380	2120
Q-SBL-130 (bispecific antibody, human IgG1, kappa, copies: 1 + 1 + 1 + 1) heavy 1: not shown heavy 2: EVQLVESGGGLVQPGGSLRLSCAASGYTFTNYGMNWVRQAPGKGLEWVGWINTYTGEPTYAADFKRRFTFSLDTSKSTAYLQMNSLRAEDTAVYYCAKYPHYYGSSHWYFDVWGQGTLVTVSSASTKGPSVFPLAPSSKSTSGGTAALGCLVKDYFPEPVTVSWNSGALTSGVHTFPAVLQSSGLYSLSSVVTVPSSSLGTQTYICNVNHKPSNTKVDKKVEPKSCDKTHTCPPCPAPELLGGPSVFLFPPKPKDTLMISRTPEVTCVVVDVSHEDPEVKFNWYVDGVEVHNAKTKPREEQYNSTYRVVSVLTVLHQDWLNGKEYKCKVSNKALPAPIEKTISKAKGQPREPQVCTLPPSREEMTKNQVSLWCLVKGFYPSDIAVEWESNGQPENNYKTTPPVLFSDGSFFLYSKLTVDKSRWQQGNVFSCSVMHEALHNHYTQKSLSLSPGK light 1: not shown light 2: not shown	17	740	290	1720
Q-SBL-116 (bispecific antibody, human IgG1, kappa, copies: 1 + 1 + 1 + 1) heavy 1: not shown heavy 2: EVQLVESGGGLVQPGGSLRLSCAASGYTFTNYGMNWVRQAPGKGLEWVGWINTYTGEPTYAADFKRRFTFSLDTSKSTAYLQMNSLRAEDTAVYYCAKYPHYYGSSHWYFDVWGQGTLVTVSSASTKGPSVFPLAPSSKSTSGGTAALGCLVKDYFPEPVTVSWNSGALTSGVHTFPAVLQSSGLYSLSSVVTVPSSSLGTQTYICNVNHKPSNTKVDKKVEPKSCDKTHTCPPCPAPELLGGPSVFLFPPKPKDTLMISRTPEVTCVVVDVSHEDPEVKFNWYVDGVEVHNAKTKPREEQYNSTYRVVSVLTVLHQDWLNGKEYKCKVSNKALPAPIEKTISKAKGQPREPQVCTLPPSRKEMTKNQVSLWCLVKGFYPSDIAVEWESNGQPENNYKTTPPVLDSDGSFFLYSKLTVDKSRWQQGNVFSCSVMHEALHNHYTQKSLSLSPGK light 1: not shown light 2: not shown	33	650	370	2340
